In paper PMC6186450:
pKd: −log10 of the molar value.

Biological target: Human Plasma Fibronectin (human)
Assay: ITC

Substance	pKd	stoichiometry N	dH [kcal/mol]
10 kDa PEG-FUD (peptide)	8.34	–	–
20 kDa PEG-FUD (peptide)	8.00	1.63	–
40 kDa PEG-FUD (peptide)	7.83	–	-32.5
Functional Upstream Domain (FUD) peptide	8.22	–	–
